Results published in patent US20070116750A1, “Compositions for disrupting and inhibiting reconstitution of wound biofilm” (priority 2005, published 2007).
Entries after “also recorded” stand apart in the source; their conditions may differ.

Experiments:
chronic wound biofilm = experiment: Topical treatment of patients' chronic/non-healing wounds in the clinic (case reports and clinical experience); type: in vivo, human; conditions: for wound healing outcome: topical application with debridement and other wound care
Description: The composition is preferably applied following wound debridement. Although biofilm bacteria cannot be completely eradicated from the wound area by debridement, decreasing biofilm mass and providing increased exposure of the debrided tissue and remaining biofilm bacteria to the inventive compositions increases wound healing. […] It is therefore of benefit to debride the slough from the wound as completely as possible. Debridement can be performed by surgical, mechanical, autolytic, enzymatic, or a combination of means known to those of skill in the art of wound care. Furthermore, standard gauze dressings to pack or cover the wound will preferably be avoided, since those dressings may enhance biofilm formation or reconstitution in the wound. If used, such dressings may, however, be coated or impregnated with a composition of the present invention to decrease the biofilm-enhancing properties of a gauze dressing.
Topical wound care compositions may comprise about 2 to about 200 mg of MDPP or MDPP-A per cubic centimeter of total composition. In one embodiment, a composition comprises about 20 to about 200 mg of MDPP or MDPP-A, provided as Bioferrino®1000 or Bioferrin®2000, per cubic centimeter of total composition and about 1 to about 50, or in some embodiments about 5 to about 20, percent (w/v) xylitol. In one embodiment, this composition may be admixed into a methylcellulose/gelatin gel. This composition can be applied, in an amount of about ½ to about 5 cc of protein isolate/xylitol composition to each one square centimeter of wound area, to a freshly debrided chronic wound after the slough has been removed.
Xylitol (one-, two-, three-, four-, and five-xypentane hydro from Spectrum Chemical) comprised the second active ingredient, and was present at a concentration of 5% by weight of the mixture. The base gel of the composition comprised methylcellulose (0.023 gm/cc), gelatin (0.013 gm/cc) and sterile water.

oral ulcers = conditions: hamsters; cited from earlier work
P. aeruginosa = conditions: in vitro; cited from earlier work
Streptococcus mutans = conditions: lactoferrin and iron depletion; cited from earlier work
[1] = individual patient case reports

B1: lactoferrin: iron-binding glycoprotein, 75,000-80,000 Daltons; in Examples 2-11 applied as Bioferrin with xylitol in gel (protein, UniProt P24627 20-708, looked up)
Lactotransferrin: APRKNVRWCTISQPEWFKCRRWQWRMKKLGAPSITCVRRAFALECIRAIAEKKADAVTLDGGMVFEAGRDPYKLRPVAAEIYGTKESPQTHYYAVAVVKKGSNFQLDQLQGRKSCHTGLGRSAGWIIPMGILRPYLSWTESLEPLQGAVAKFFSASCVPCIDRQAYPNLCQLCKGEGENQCACSSREPYFGYSGAFKCLQDGAGDVAFVKETTVFENLPEKADRDQYELLCLNNSRAPVDAFKECHLAQVPSHAVVARSVDGKEDLIWKLLSKAQEKFGKNKSRSFQLFGSPPGQRDLLFKDSALGFLRIPSKVDSALYLGSRYLTTLKNLRETAEEVKARYTRVVWCAVGPEEQKKCQQWSQQSGQNVTCATASTTDDCIVLVLKGEADALNLDGGYIYTAGKCGLVPVLAENRKSSKHSSLDCVLRPTEGYLAVAVVKKANEGLTWNSLKDKKSCHTAVDRTAGWNIPMGLIVNQTGSCAFDEFFSQSCAPGADPKSRLCALCAGDDQGLDKCVPNSKEKYYGYTGAFRCLAEDVGDVAFVKNDTVWENTNGESTADWAKNLNREDFRLLCLDGTRKPVTEAQSCHLAVAPNHAVVSRSDRAAHVKQVLLHQQALFGKNGKNCPDKFCLFKSETKNLLFNDNTECLAKLGGRPTYEEYLGTEYVTAIANLKKCSTSPLLEACAFLTR
Chronic wound biofilm; chronic wounds after debridement, comparative statements
  inhibition of biofilm reconstitution / response of wounds, clinical experience: inhibits reconstitution of an existing biofilm in a chronic wound
Chronic wound biofilm; [1]
  slough (biofilm) in the wound bed during therapy: no evidence of slough
  wound healing outcome: the wound healed; also recorded: almost completely healed
Chronic wound biofilm; individual patient case reports, listed as Lactoferrin
  wound healing outcome: complete healing of their wound
Chronic wound biofilm; patients with venous leg wounds
  time to complete healing / closure of wound: 5 weeks
Oral ulcers
  efficacy for treating oral ulcers: not effective
P. aeruginosa
  effect on biofilm formation: block biofilm formation
Streptococcus mutans
  effect on biofilm formation: stimulate biofilm formation
